In the supplement of paper PMC10126150:
± gives the standard deviation of the averaged measurements.

System: ATP
Test: switch fluorescence ratio, 500 uM ATP over buffer (Cy3 cluster intensity, sum of 5 cycles each) (fold (ratio)); higher = stronger signal-on switching upon ATP binding; sequences stand for … in TCGTCGGCAGCGTCAGATGTGTATAAGAGACAGTTTTTTTTTTTTTTTTTTTTTTTTT…TC
Conditions: aptamer strand: ATP DNA aptamer (quencher-CACCTGGGGGAGTATTGCGGAGGAAGG + anchor), 100 nM annealed; ATP concentration: 500 uM
In short: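 For every switch-domain sequence, the fluorescence ratio is the mean of per-cluster values, each being summed target-cycle Cy3 intensity over summed buffer-cycle Cy3 intensity. Clusters outside 100-1000 RFU were excluded. On a modified Illumina MiSeq flow-cell, the Cy3-labelled switching-strand clusters were annealed to 100 nM quencher-labelled ATP aptamer, imaged in selection buffer and then after 15 min with 500 uM ATP at 22 °C. Five such cycles were run, with NaOH stripping and re-annealing between them.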
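Note: ATP exposure 15 min at 22 °C before imaging.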

Sequence | switch fluorescence ratio
ATTTTACGTA | 1.143 ± 0.0025
GGCGTAAATG | 1.02 ± 0.0066
CTTCGGACCG | 1.03 ± 0.096
TCAAAGACGG | 1.02 ± 0.016
TCCTAGGGGG | 1 ± 0.026
ACGGGGTGGT | 1.065 ± 0.0059
TGACGCGTCA | 1.01 ± 0.013
AAATGGGTAC | 0.9935 ± 0.0099
CACATATTCC | 1.14 ± 0.035
CTAGTTGGTC | 0.981 ± 0.033
CGGGGGAAGG | 0.979 ± 0.026
GCTCTAGGGA | 0.984 ± 0.043
GATTGTAAGA | 1.16 ± 0.2
TTCCGTTATG | 1.04 ± 0.037
TTGGTTTTGT | 0.995 ± 0.024
AATTCTGGCT | 1.006 ± 0.0071
TGAGGATATA | 0.9887 ± 0.0059
AGTCGTGCGG | 0.988 ± 0.037
TAGATTGACC | 1.04 ± 0.033
GACATGAAGG | 1 ± 0.015
CAAGGGATTT | 0.982 ± 0.036
ATGGTGAGGG | 0.962 ± 0.011
CATAGTGTTT | 1.01 ± 0.012
CGGAAAGGGA | 1.01 ± 0.022
GCAAGTTACG | 1.14 ± 0.041
GCTTGCAAAG | 1.007 ± 0.0031

Sequence | switch fluorescence ratio
TGGGCATATA | 0.996 ± 0.012
TAGGGGAGAT | 1.027 ± 0.0098
AGCTGGGGTC | 0.9851 ± 0.0063
GAGGGGGCCA | 1.02 ± 0.027
CGCGGGGTAG | 1.038 ± 0.0072
TCATTTGATA | 1.03 ± 0.035
GCGGCTGGGG | 1.01 ± 0.057
CATTAGGGTC | 0.932 ± 0.019
ACAGTTATTG | 1.016 ± 0.0077
TGGCGTAGGT | 1.005 ± 0.0083
ACGTCAAGGG | 1.1 ± 0.067
AAAAACATAG | 1.03 ± 0.017
AGAGGTTGCA | 0.994 ± 0.032
GAAGTACCTT | 1.2 ± 0.044
TTGGGGAAGG | 1.04 ± 0.034
AATCGTGGAA | 1.01 ± 0.019
TTAGTAGGAG | 0.992 ± 0.034
CGGGCGCTGG | 0.995 ± 0.018
TAAGCAGTTT | 1.038 ± 0.0027
TATTATCGTA | 0.9927 ± 0.0081
TACGTGTAGC | 1.01 ± 0.011
AACCCGCCTT | 1.07 ± 0.067
ATGGGTAAGG | 0.983 ± 0.019
TTAAAATCCT | 1.12 ± 0.11
CCCAGATTAA | 1.01 ± 0.085
TTCCTGAGGG | 1.11 ± 0.058

Sequence | switch fluorescence ratio
TTTATGTAAA | 0.9849 ± 0.0081
CTGGGCCGTC | 1.01 ± 0.021
GTTTGGGGCG | 1.01 ± 0.035
GTTTTTTTTA | 0.989 ± 0.037
CAATTGGGTT | 0.985 ± 0.025
TTTCTTGCAC | 1.067 ± 0.0095
ATCGCAGCTC | 1.62 ± 0.017
CAGGGACGTT | 0.987 ± 0.02
TTCAGCCATT | 1.01 ± 0.041
TGTCCTAGCG | 0.99 ± 0.024
AGGAGCTCTT | 0.998 ± 0.0056
TGCGGGGGCT | 1.002 ± 0.0025
TCTTGTTAT | 1.01 ± 0.051
AATTGAAAAA | 1.05 ± 0.069
TCTCGTTTTT | 1 ± 0.043
CGTTGTGACT | 0.998 ± 0.021
TCGTAAGAAA | 1.01 ± 0.043
ATATTATTAC | 1.06 ± 0.016
CGTTAATCTA | 0.987 ± 0.026
ATTATATTCT | 1 ± 0.038
CGTTCAATTA | 0.996 ± 0.027
AAAGGGGAGT | 1.04 ± 0.11
GGACTCGGGG | 1.04 ± 0.043
CATTCATTGA | 0.998 ± 0.049
GCATTCCGAA | 1.22 ± 0.028
CATCAATCTC | 1.12 ± 0.02

Sequence | switch fluorescence ratio
AATTTTTGTC | 1.01 ± 0.023
TTTTTATGCT | 0.99 ± 0.035
GGCATAGTTT | 0.969 ± 0.026
GTTGGGTGGA | 1.0356 ± 0.00032
GGGGATTTCT | 0.99526 ± 0.00079
TTACAAGGGA | 1.09 ± 0.18
CCCTCCTTG | 1.0791 ± 6.3e-05
GGTACTCGTT | 0.991 ± 0.016
TCTTGTTTTG | 0.994 ± 0.048
TCGACGTCTC | 1.29 ± 0.16
TAGTGCAATA | 1.6994 ± 0.00043
CTGGTGTATT | 1.017 ± 0.0046
TTCGGGATTA | 1 ± 0.018
GACTAGTGAC | 1.01 ± 0.021
TAGGAGAAGT | 0.991 ± 0.042
TCGGGGTTA | 0.979 ± 0.029
TCAGTTTACG | 0.988 ± 0.019
CGAGGGCAGG | 1.08 ± 0.06
GGGGAGTTTC | 1.065 ± 0.0042
AGGGAGTGGG | 0.968 ± 0.027
AAAAATGACG | 0.991 ± 0.028
TGTTGATA | 0.968 ± 0.016
ACGGAATTTT | 1.09 ± 0.08
TAACACGGGA | 1.037 ± 0.003
TTTTTATCGT | 1.02 ± 0.017
ATGGGGAGTC | 0.985 ± 0.035

Sequence | switch fluorescence ratio
CGTTGGGTTG | 0.987 ± 0.024
TGAACCAGGG | 1.05 ± 0.018
GATAATGGTT | 0.964 ± 0.011
CGAGGGCATG | 1.07 ± 0.045
GTGGCGTGGA | 0.991 ± 0.021
TAAGGGGTAT | 0.985 ± 0.032
ACGGAGACGG | 0.979 ± 0.067
GAAGGGGCCG | 1.12 ± 0.07
TTTGGACGGG | 0.995 ± 0.033
AAATTGTTTT | 1.01 ± 0.019
CGAACCTTGG | 0.998 ± 0.019
TGCGGAGAAT | 1.028 ± 0.0026
ACTTTTGGGT | 0.9602 ± 0.0088
AAGTCCACAC | 1.05 ± 0.041
GACGTATTGC | 1.27 ± 0.061
GCAGGAGGGG | 0.965 ± 0.074
AGGGATAAAA | 1.02 ± 0.055
GCCAGGGCTG | 1 ± 0.024
GTTAGAGCGG | 1.02 ± 0.031
ATATAGGGGG | 0.997 ± 0.014
TGGCAATTAG | 1.1 ± 0.074
CGTGTATATC | 1.07 ± 0.028
ACTCGGGGAG | 1 ± 0.013
AGTCGGGGGG | 0.989 ± 0.021
GCCTGGTCAG | 0.979 ± 0.013
CATATATCGG | 1.02 ± 0.012

Sequence | switch fluorescence ratio
CAAAGGGGGG | 1.13 ± 0.38
TAACATCTTT | 1.03 ± 0.013
AGGGCTGATA | 1.009 ± 0.0013
TAAGTTAGGG | 0.972 ± 0.029
TGTCCGAGCA | 1.75 ± 0.058
TTTTTCACTT | 1 ± 0.036
AGGCTCCTCT | 1.02 ± 0.025
TGTTATTGGG | 0.987 ± 0.042
TAGCGAAAAA | 0.992 ± 0.016
TTGGTTTGCC | 0.982 ± 0.029
TACATTTAGG | 0.9964 ± 0.0092
TCAAGGGGGC | 0.9915 ± 0.0018
ACAGTTGTAT | 1.015 ± 0.01
TGCTCTGCGT | 1.17 ± 0.012
TTCGGTGGGT | 0.988 ± 0.027
AGGTGATAGG | 0.9825 ± 0.0059
GCTTTTCGGG | 1.02 ± 0.02
TCGGGACATC | 1.03 ± 0.032
CATTAGTCGT | 0.996 ± 0.013
TAGAGATCTA | 1.011 ± 0.0016
GCTATTAGTT | 1.04 ± 0.017
GTTGGTGGTG | 0.9719 ± 0.0029
TAAGTGTGTG | 0.975 ± 0.021
